Target: the molecule itself
Test: immunoblot after SDS-PAGE (higher molecular weight band); total protein lysate of WT/pcon ++flgV (PA267) B. burgdorferi, log and stationary phase, boiled in Laemmli buffer with beta-mercaptoethanol, Tris-Glycine gel, probed with anti-FlgV

B1: FlgV (BB0268), B. burgdorferi (natural protein)
chain: MFISRELKYILLTSVSALFISAVLGLFCGLSFFTILVRSLLQFVFFFVIGLLIEYIFKKYLSNLFSTELSGNMENKPQDDKKSDKDFKENLDFQNKNSLYENSQNISSSGDFIEEVKKYKFETEDVSRGSDKNKKMSFIEDNDPKVVADAIKTLMSKKE
notes: FlgV (BB0268) of Borrelia burgdorferi B31; ORF of 480 bp; antigen for the antibody was amino acids 58-159; two predicted transmembrane helices (amino acids 13 to 35 and 40 to 57); native flgV ORF amplified from B. burgdorferi A3 genomic DNA for the overexpression plasmid; Untagged protein; Strains, plasmids and primers are in Supplementary Data 1; also called bb0268 gene product; previously …
stoichiometry N: 2
